Measured values reported in the supplement of paper PMC10126150.
± gives the standard deviation of the averaged measurements.

Test system: ATP
Experiment: switch fluorescence ratio, 500 uM ATP over buffer (Cy3 cluster intensity, sum of 5 cycles each) (fold (ratio)); higher = stronger signal-on switching upon ATP binding; sequences stand for … in TCGTCGGCAGCGTCAGATGTGTATAAGAGACAGTTTTTTTTTTTTTTTTTTTTTTTTT…TC
Details: aptamer strand: ATP DNA aptamer (quencher-CACCTGGGGGAGTATTGCGGAGGAAGG + anchor), 100 nM annealed; ATP concentration: 500 uM
Summary of the method: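 After annealing to 100 nM quencher-labelled ATP aptamer, Cy3-labelled switching-strand clusters on a modified Illumina MiSeq flow-cell were imaged in selection buffer. A second image followed after 15 min with 500 uM ATP at 22 °C, and five such buffer/ATP cycles were done, each separated by NaOH stripping and re-annealing. The fluorescence ratio, averaged per switch-domain sequence, is summed target-cycle over summed buffer-cycle Cy3 intensity per cluster, with clusters outside 100-1000 RFU excluded.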
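Further: ATP exposure 15 min at 22 °C before imaging.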

Sequence	switch fluorescence ratio
AACGCGGTGG	0.941 ± 0.017
TTGTATAAA	1 ± 0.022
CAACACGGTG	1.08 ± 0.038
TGAAAATAGT	0.965 ± 0.029
AGCAATGGGG	1.58 ± 0.051
ACCCTAGACG	1.03 ± 0.045
AAAAGTGGGC	1.07 ± 0.081
GGTGAGGTTG	0.971 ± 0.02
AATGGGGGCA	1.007 ± 0.0076
CTTGTTGAGG	0.988 ± 0.012
GGGCCTGGGA	1.01 ± 0.012
GGGGTAAAGA	1.02 ± 0.036
TTTGCCTCAA	1.01 ± 0.011
GCAGACCATT	1.049 ± 0.0067
ATGGAGGGAC	1.48 ± 0.66
TTAGGGGGCG	1.03 ± 0.045
CTGATGAGAG	0.997 ± 0.051
TATTTTTGGG	0.99 ± 0.023
CAGGAGGGCT	0.993 ± 0.031
ACGAGACGC	1.16 ± 0.031
ATGGGAGGGT	0.997 ± 0.061
GTTAATGGGT	0.98 ± 0.047
CGTTAGGTAT	0.969 ± 0.033

Sequence	switch fluorescence ratio
GAATACGGTT	1.26 ± 0.44
CGGGTTGTGT	1 ± 0.02
AGGGGGAAGC	1.02 ± 0.027
AAAATGCGCT	0.975 ± 0.013
TAATCGCCAA	1.05 ± 0.0039
GCTCTTGTTC	0.9975 ± 0.0083
CGTTGACCTT	1.07 ± 0.029
AGGATGGTGG	1.02 ± 0.037
TATCGTGGGA	1.01 ± 0.019
TTTATTAAAA	0.99 ± 0.038
GATCGAAACT	1.01 ± 0.081
CGTGGTGGCT	0.989 ± 0.12
ACGGGGCGGC	1.11 ± 0.028
GAGTTCTTAG	0.9587 ± 0.0011
GATTTGTTTT	0.994 ± 0.013
GCTTGCTCAT	1.018 ± 0.0094
GTGAAAACGT	1.04 ± 0.035
ATCGTCATAT	1 ± 0.036
TTGGGTTTCA	0.995 ± 0.053
TCATGGCACC	1.05 ± 0.025
TTTTAATGTC	0.984 ± 0.027
TAGGGAGGGT	1.11 ± 0.2
GGGGGGTTTG	1 ± 0.037

Sequence	switch fluorescence ratio
CTGGGGAGGC	1.06 ± 0.041
GGGGGAAGGG	0.984 ± 0.027
AAGGGCCAGC	0.9896 ± 0.0042
ACTGTTGTGT	1.06 ± 0.1
AGTGTAGCTT	1.07 ± 0.19
AGTTAGTGGA	0.9924 ± 0.00044
ATGGTAGCTT	1 ± 0.024
ACGCCCTTTT	1.05 ± 0.052
TACGTGCCTC	0.99 ± 0.02
AAGTATAGC	1.02 ± 0.044
GGGGATTGTG	0.991 ± 0.029
TAACGGAGGG	0.993 ± 0.04
GCGGGCTGAA	0.962 ± 0.014
AGAGGAAGGT	1.03 ± 0.046
CTGTGTGGCC	0.968 ± 0.073
GTGCTTTTGG	0.9997 ± 0.008
TCTTAGGCTG	1.01 ± 0.018
TGTAGTTTTT	0.961 ± 0.025
ATCGGTCATG	0.993 ± 0.013
TTTTTTGAAA	1 ± 0.054
ATTTAGGGTA	0.9856 ± 0.0078
GAGGTTATTG	0.99 ± 0.025
GGCTTAGGTG	1.26 ± 0.06

Sequence	switch fluorescence ratio
GGCTGGCACA	1.002 ± 0.0085
TCTGGCAGAT	1.01 ± 0.028
TGACTGTTTG	0.984 ± 0.04
AGCCCATACG	1.2 ± 0.039
TGCACTAGAA	1.01 ± 0.017
TGGCCCCTAT	0.962 ± 0.029
AGGGTGACAT	0.999 ± 0.013
AGGGGTAAGG	1.03 ± 0.033
GTTGCTTAGT	0.9724 ± 0.0038
CGTAAATTTA	0.975 ± 0.018
GGTGAGAAAT	1.01 ± 0.04
TTTTAAGAAG	1.02 ± 0.018
AGTTGGATGC	0.965 ± 0.068
ATTTCATGCG	1.03 ± 0.023
AGTTCATATA	1.013 ± 0.0011
ACAGATTTAG	0.972 ± 0.014
AAATGGGTTG	1 ± 0.01
TCAGCGACTT	1.01 ± 0.031
GCGCTACGGG	1.01 ± 0.019
TAGGATATTT	1 ± 0.02
CAGGCCATGG	1.03 ± 0.094
TCTCGGGGGG	1.02 ± 0.065
AGGTTGTGCT	0.9644 ± 0.009

Sequence	switch fluorescence ratio
GGGGTGTAAT	1.01 ± 0.021
GCGAGCCAGG	2.169 ± 0.011
TTGTAGGGCC	1.03 ± 0.022
ACATGAACCT	2.14 ± 0.077
TCGGCGAATG	1.02 ± 0.024
TAATAGTTCC	1.106 ± 0.0025
AAGTTGGGGC	0.989 ± 0.032
TCTGCTTTTG	1.05 ± 0.02
TTTAGCTGT	1.1 ± 0.17
TTCAAATGGG	0.9991 ± 0.0053
GTTGTTGGAA	0.963 ± 0.049
CAAGAAATCT	1.0078 ± 0.0005
GAGGTAGAGG	0.986 ± 0.026
GCGGGGGCGT	1 ± 0.03
TTGGATGGAA	0.984 ± 0.023
AGTACTGGCA	1.04 ± 0.061
GAATGGGGCT	0.987 ± 0.037
TGGGGTCTGG	0.976 ± 0.026
CAAGCTTAGG	0.995 ± 0.014
TGTGGCGTTT	1.04 ± 0.059
ATTTATTCTA	0.976 ± 0.036
AACGCGACAT	1.29 ± 0.022
TAAGGGGGCC	1.08 ± 0.16

Sequence	switch fluorescence ratio
TCGGTTAGAT	0.981 ± 0.057
GAGTGCGGAT	0.98 ± 0.026
TGTGTCAATT	0.9841 ± 0.0092
CCAATCAGGT	1.08 ± 0.097
ATAAAGGGGA	0.984 ± 0.038
TTTTAGATTG	0.987 ± 0.028
AGATGTATTT	0.997 ± 0.032
CCTCATTTTT	0.988 ± 0.0099
TCCACACGCT	2.14 ± 0.25
TTGTTGATGC	1.14 ± 0.021
TATGGCGGTG	0.989 ± 0.021
AAATGTGGCA	0.9862 ± 0.002
GCATGTGTTC	0.995 ± 0.038
TTATTAGTTT	0.994 ± 0.017
AAATCCAATA	1.0106 ± 0.0007
TCGGAACTTG	1.01 ± 0.07
ATAAATTTGC	0.968 ± 0.045
TGGTGGATGG	1.22 ± 0.29
GGAGTTTTGA	0.982 ± 0.02
GCTGGTCATG	0.989 ± 0.018
TTTATCGGG	1.01 ± 0.044
GTTGAAGGAC	0.996 ± 0.026
TAAGTTGATC	0.989 ± 0.053

Sequence	switch fluorescence ratio
GATGTTAATA	0.985 ± 0.085
TTTGACAGCG	1.02 ± 0.066
TTTCTTTTTG	0.99 ± 0.034
TGGTGTAAGA	1.04 ± 0.025
CGATAACGTC	0.992 ± 0.011
GGTTTGCTGA	1.01 ± 0.043
GAATTTTCGC	0.995 ± 0.029
AACTAAATCT	1.023 ± 0.00042
GGTTAAGGCA	1.022 ± 0.0034
GACTAATGAT	1.02 ± 0.024
TTTAATTCGC	1.1 ± 0.056
TTGCCTTTCG	0.97 ± 0.041
TTTTTACATC	1 ± 0.021
AAAATAGAAC	1.01 ± 0.041
CAAAGATAGG	0.996 ± 0.018
GAGGTATTTT	1.34 ± 0.65
TAGGGGCTTT	1.04 ± 0.062
AAAATGCTTT	1.01 ± 0.0014
GTTATTGCGA	0.997 ± 0.019
